Reference: patent US20260151494A1

Columns and labels:
[1] = target: apical domain of CD71 (Screen 3: 'cynomolgus apical domain of human CD71') (cynomolgus (as paragraph 454 words it; ambiguous)); test: primary ELISA
[2] = target: apical domain of CD71 (Screen 3: 'cynomolgus apical domain of human CD71') (cynomolgus (as paragraph 454 words it; ambiguous)); test: primary ELISA, RLU ratio to HSA

| Binder | RLU [1] [RLU] | Apical domain:HSA [2] |
| --- | --- | --- |
| CD71-binding FN3 domain SEQ ID NO: 240 (designed binder) MSLPAPKNLVVSRVTEDSARLSWTAPDAAFDSFHIWYFEKANEGEAIPLVVPGSERSYDLTGLKPGTEYDVDIGGVKGGAWSIPLGARFTT | 6.83e+06 | 71 |
| CD71-binding FN3 domain SEQ ID NO: 241 (designed binder) MSLPAPKNLVVSRVTEDSARLSWTAPDAAFDSFMIAYDEFIVWGEAVVLTVPGSERSYDLTGLKPGTEYLVEILGVKGGTISGPLSAIFTT | 6.21e+06 | 324 |
| CD71-binding FN3 domain SEQ ID NO: 257 (designed binder) MSLPAPKNLVVSHVTEDSARLSWTAPDAAFDSFEIGYWENAYKGEAIVLTVPGSERSYDLTGLKPGTEYVVFIGGVKGGVWSVPLSAIFTT | 5.15e+06 | 687 |
| CD71-binding FN3 domain SEQ ID NO: 237 (designed binder) MSLPAPKNLVVSRVTEDSARLSWTAPDAAFDSFEIAYFERTWFGEAIVLTVPGSERSYDLTGLKPGTEYWVQIGGVKGGDWSKPLSAIFTT | 5.01e+06 | 672 |
| CD71-binding FN3 domain SEQ ID NO: 250 (designed binder) MSLPAPKNLVVSRVTEDSARLSWTAPDAAFDSFEIGYFENLYLGEAIVLTVPGSERSYDLTGLKPGTEYWVQIGGVNGGNWSAPLSAIFTT | 5.11e+06 | 211 |
| CD71-binding FN3 domain SEQ ID NO: 254 (designed binder) MSLPAPKNLVVSRVTEDSARLSWTAPDAAFDSFEIGYFENLYLGEAIVLWVPGSERSYDLTGLKPGTEYWVQIGGVKGGNWSAPLSAIFTT | 5.11e+06 | 448 |
| CD71-binding FN3 domain SEQ ID NO: 242 (designed binder) MSLPAPKNLVVSRVTEDSARLSWTAPDAAFDSFEIGYFENLYLGEAIVLTVPGSERSYDLTGLKPGTKYWVQIGGVKGGNWSAPLSAIFTT | 4.84e+06 | 493 |
| CD71-binding FN3 domain SEQ ID NO: 256 (designed binder) MSLPVPKNLVVSRVTEDSARLSWTAPDAAFDSFEIGYFENLYLGEAIVLTVPGSERSYDLTGLKPGTEYWVQIGGVKGGNWSAPLSAIFTT | 4.92e+06 | 399 |
| CD71-binding FN3 domain SEQ ID NO: 248 (designed binder) MSLPAPKNLVVSRVTEDSARLSWTAPDAAFDSFEIGYFENLYLGEAIVLTVPGSERSYDLTGLKPGTEYVVFIGGVKGGDFSPPLSAIFTT | 5.12e+06 | 550 |
| CD71-binding FN3 domain SEQ ID NO: 239 (designed binder) MSLPAPKNLVVSRVTEDSARLSWTAPDAAFDSFEIVYQENSAYGEAIVLTVPGSERSYDLTGLKPGTEYWVQIGGVKGGNWSAPLSAIFTT | 5.4e+06 | 442 |
| CD71-binding FN3 domain SEQ ID NO: 238 (designed binder) MSLPAPKNLVVSRVTEDSARLSWTAPDAAFDSFEIGYFENDYFGEAIVLTVPGSERSYDLTGLKPGTEYVVFIGGVKGGKWSAPLSAIFTT | 6.39e+06 | 954 |
| CD71-binding FN3 domain SEQ ID NO: 246 (designed binder) MSLPAPKNLVVSRVTEDSARLSWTAPDAAFDSFEIAYQELSLWGEAIVLTVPGSERSYDLTGLKPGTEYYVHIGGVKGGIWSSPLSAYFTT | 6.18e+06 | 609 |
| CD71-binding FN3 domain SEQ ID NO: 249 (designed binder) MSLPAPKNLVVSRVTEDSARLSWTAPDAAFDSFEIGYWENAYRGEAIVLTVPGSERSYDLTGLKPGTEYVVFIGGVKGGVWSVPLSAIFTT | 4.81e+06 | 556 |
| CD71-binding FN3 domain SEQ ID NO: 244 (designed binder) MSLPAPKNLVVSRVTEDSARLSWTAPDAAFDSFEIGYFENLYLGEAIVLTVPGSERSYDLTGLKPGTEYVVFIGGVKGGEYSIPLSAIFTT | 5.23e+06 | 630 |
| CD71-binding FN3 domain SEQ ID NO: 247 (designed binder) MSLPAPKNLVVSRVTEDSARLSWTAPDAAFDSFEIGYFENLYLGEAIVLTVPGSERSYDLTGLKPGTEYWVQIGGVKGGEWSAPLSAIFTT | 4.45e+06 | 679 |
| CD71-binding FN3 domain SEQ ID NO: 251 (designed binder) MSLPAPKNLVVSRVTEDSARLSWTAPDAAFDSFEIGYFENLYLGEAIVLTVPGSERSYDLTGLKPGTEYWVQIGGVKGGNWSAPLVATFTT | 5.1e+06 | 903 |
| CD71-binding FN3 domain SEQ ID NO: 255 (designed binder) MSLPAPKNLVVSRVTEDSARLSWTTPDAAFDSFEIAYFEIAWLGEAIVLTVPGSERSYDLTGLKPGTEYWVQIGGVKGGAYSTPLSAIFTT | 5.41e+06 | 131 |
| CD71-binding FN3 domain SEQ ID NO: 253 (designed binder) MSLPAPKNLVVSRVTEDSARLSWTAPDAAFDSFDINYWENESGGEAIALFVPGSERSYDLTGLKPGTEYWVSIGGVKGGRFSEPLYARFTT | 5.78e+06 | 530 |
| CD71-binding FN3 domain SEQ ID NO: 259 (designed binder) MSLPAPKNLVVSRVTEDSARLSWTAPDAAFDSFYIAYAEPRPDGEAILLEVPGSERSYDLTGLKPGTEYSVLIHGVKGGLLSSPLSATFTT | 5.16e+06 | 411 |
| CD71-binding FN3 domain SEQ ID NO: 261 (designed binder) MSLPAPKNLVVSRVTEDSARLSWTAPDAAFDSFYIAYAEPRPDGEAILLWVPGSERSYDLTGLKPGTEYSVLIHGVKGGLLSSPLHAYFTT | 4.57e+06 | 714 |
| CD71-binding FN3 domain SEQ ID NO: 245 (designed binder) MSLPAPKNLVVSRVTEDSARLSWTAPDAAFDSFEISYWEHTFNGEAIILFVPGSERSYDLTGLKPGTEYYVTIGGVKGGAWSPPLWAHFTT | 6.07e+06 | 610 |
| CD71-binding FN3 domain SEQ ID NO: 243 (designed binder) MSLPAPKNLVVSRVTEDSARLSWTAPDAAFDSFFIGYLEPQPPGEAIHLYVPGSERSYDLTGLKPGTEYNVTIQGVKGGEWSAPLSAIFTT | 4.57e+06 | 582 |
| CD71-binding FN3 domain SEQ ID NO: 258 (designed binder) MSLPAPKNLVVSRVTEDSARLSWTAPDAAFDSFFIGYLEPQPPGEAIVLGVPGSERSYDLTGLKPGTEYNVTIQGVKGGFPSDPLVASFTT | 6.79e+06 | 302 |
| CD71-binding FN3 domain SEQ ID NO: 262 (designed binder) MSLPAPKNLVVSRVTEDSARLSWTAPDAAFDSFFIGYLEPQPPGEVIHLFVPGSERSYDLTGLKPGTEYNVTIQGVKGGFPSDPLVASFTT | 7.2e+06 | 562 |

Second part, the binder after the results:

| RLU [1] [RLU] | Apical domain:HSA [2] | Binder |
| --- | --- | --- |
| 4.94e+06 | 347 | CD71-binding FN3 domain SEQ ID NO: 271 (designed binder) MSLPAPKNLVVSRITEDSARLSWTAPDAAFDSFEIGYWENAYKGEAIVLTVPGSERSYDLTGLKPGTEYVVFIGGVKGGVWSVPLSAIFTT |
| 4.64e+06 | 581 | CD71-binding FN3 domain SEQ ID NO: 274 (designed binder) MSLPAPKNLVVSRVTEDSARLSWTAPDAAFDSFEIVYWEQVGVGEAIVLTVPGSERSYDLTGLKPGTEYWVQIGGVKGGGFSEPLSAIFTT |
| 6.01e+06 | 481 | CD71-binding FN3 domain SEQ ID NO: 269 (designed binder) MSLPAPKNLVVSRVTEDSARLSWTAPDAAFDSFEIGYFENDYFGEAIVLTVPGSERSYDLTGLKPGTEYVVFIGGVKGGNWSAPLSAIFTT |
| 4.66e+06 | 476 | CD71-binding FN3 domain SEQ ID NO: 272 (designed binder) MSLPAPKNLVVSRVTEDSARLSWTAPDAAFDSFEIAYGEAAYDGEAIALLVPGSERSYDLTGLKPGTEYWVQIGGVKGGNWSAPLSAIFTT |
| 5.51e+06 | 344 | CD71-binding FN3 domain SEQ ID NO: 263 (designed binder) MSLPAPKNLVVSRVTEDSARLSWTAPDAAFDSFEIGYFENLYLGEAIVLTVPGSERSYDLTGLKPGTEYWVQIGGVKGGNWSSPLSAIFTT |
| 5.8e+06 | 188 | CD71-binding FN3 domain SEQ ID NO: 268 (designed binder) MSLPAPKNLVVSRVTEDSARLSWTAPDAAFDSFEIGYFENLYLGEAIVLTVPGSERSYDPTGLKPGTEYWVQIGGVKGGNWSAPLSAIFTT |
| 6.05e+06 | 1060 | CD71-binding FN3 domain SEQ ID NO: 273 (designed binder) MLPAPKNLVVSRVTEDSARLSWTAPDAAFDSFEISYWEHTFNGEAIILFVPGSERSYDLTGLKPGTEYYVTIGGVKGGAWSPPLWAEFTT |
| 6.05e+06 | 178 | CD71-binding FN3 domain SEQ ID NO: 267 (designed binder) MSLPAPKNLVVSRVTEDSARLSWTAPDAAFDSFEISYWEHTFNGEAIILFVPGSERSYDLTGLKPGTEYYVTIGGVKGGAWSPPLWAEFTT |
| 7.41e+06 | 206 | CD71-binding FN3 domain SEQ ID NO: 266 (designed binder) MSLPAPKNLVVSRVTEDSARLSWTAPDAAFDSFFIGYLEPQPPGEAIYLLVPGSERSYDLTGLKPGTEYNVTIQGVKGGFPSLPLVATFTT |
| 6.76e+06 | 488 | CD71-binding FN3 domain SEQ ID NO: 265 (designed binder) MSLPAPKNLVVSRVTEDSARLSWTAPDAAFDSFFIGYLEPQPPGEAISLYVPGSERSYDLTGLKPGTEYNVTIQGVKGGFPSDPLVAHFTT |
| 6.23e+06 | 549 | CD71-binding FN3 domain SEQ ID NO: 264 (designed binder) MSLPAPKNLVVSRVTEDSARLSWTAPDAAFDSFFIGYLEPQPPGEAIALYVPGSERSYDLTGLKPGTEYNVTIQGVKGGFPSEPLVVHFTT |
| 6.3e+06 | 74 | CD71-binding FN3 domain SEQ ID NO: 270 (designed binder) MSLPAPKNLVVSRVTEDSARLSWTAPDAAFDSFFIGYLEPQPPGEAIHLYVPGSERSYDLTGLKPGTEYNVTIQGVKGGFPSEPLIANSTT |
